Source: patent CN114835814A
One block for each binder: values may come before it.

Target: 人源PGII蛋白 (human pepsinogen II from human gastric mucosa, Lee Biosolutions, cat. 440-50) (human) (UniProt P20142)
Test: indirect ELISA, human-derived PGII coated 2 μg/mL, culture supernatant diluted 50-fold

Chain of UniProt P20142 (P20142 17-388): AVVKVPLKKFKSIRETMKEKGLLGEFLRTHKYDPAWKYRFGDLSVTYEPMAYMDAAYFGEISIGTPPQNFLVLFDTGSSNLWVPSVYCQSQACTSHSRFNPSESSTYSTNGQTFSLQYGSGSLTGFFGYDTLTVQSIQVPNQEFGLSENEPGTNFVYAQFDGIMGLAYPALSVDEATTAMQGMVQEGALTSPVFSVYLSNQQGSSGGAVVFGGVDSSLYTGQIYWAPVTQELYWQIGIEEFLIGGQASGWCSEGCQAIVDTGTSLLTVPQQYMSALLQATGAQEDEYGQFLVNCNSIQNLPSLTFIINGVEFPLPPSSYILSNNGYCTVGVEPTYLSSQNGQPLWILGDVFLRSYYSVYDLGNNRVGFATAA

OD450: 1.72 OD450
B1: 鼠单克隆抗体3G10 (antibody, part only; not given: Light chain variable domain, V domains shown, part only)
VH: EVQLQQSGAELVKPGASVKLSCTASGFNIKDSYIHWVTQRPDQGLEWIGMIDPTNDNIRYDPKFQGRATITADTSSNTAYLQLSSLTSEDTAVYFCARDGTSLDYWGQGTSLTVSS

OD450: 1.7 OD450
B2: 鼠单克隆抗体1A7 (antibody, V domains shown)
VH: EVKLEESGGGLVQPGGSMKLSCVASGFAFSNYWMNWVRQSPEKGLEWVAEIRLKSNNYATHYAESVKGRFTISRDDSKSSVDLQMNNLRAEDTGTYYCNPFFYDYGYWGQGTTLTVSS
VL: QIVLTQSPAILSASPGEKVTISCSASSSVSYMYWYQQKPGSSPKPWIYRTSNLASGVPARFSGSGSGTSYSLTISSMEAEDAATYYCQQYHSYPRTFGGGTKLEIK
